From patent US20240025971A1 (ATRECA, published 2024) come the findings set out here.

Residue numbers refer to the chain shown, from its start. Bounds are passed on as bounds.

B1: AB-009271 (antibody, V domains shown)
VH: EVQLVESGGGLIQPGGSLRLSCAASGFIVSSNYMSWVRQAPGKGLEWVSVIYSGGSTYYADSVKGRFTISRDNSKNTLYLQMNSLRAEDTAVYYCARDYGDFYFDYWGQGTLVTVSS
VL: EIVMTQSPATLSVSPGERATLSCRASQSVSSNLAWYQQKPGQAPRLLIYGASTRATGIPARFSGSGSGTEFTLTISSLQSEDFAVYYCQQYYNWPRTFGQGTKVEIK
notes: human IgG1
B2: AB-009613 (antibody, V domains shown)
VH: B1 VH with I28T
VL: not shown
notes: human IgG1
B3: AB-009610 (antibody, V domains shown)
VH: QVQLVQSGAEVKKPGSSVKVSCKASGGTFSNYAISWVRQAPGQGLEWMGRIIPILGIANYAQKFQGRVTITADKSTSTAYMELSSLRSEDTAVYYCATTPYYYDSSGYYLDYWGQGTLVTVSS
VL: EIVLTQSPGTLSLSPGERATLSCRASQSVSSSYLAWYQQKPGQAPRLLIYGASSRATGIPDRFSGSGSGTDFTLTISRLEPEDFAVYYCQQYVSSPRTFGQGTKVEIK
notes: human IgG1
B4: AB-010020 (antibody, V domains shown)
VH: QMQLVQSGPEVKKPGTSVKVSCKASGFTFTSSAVQWVRQARGQRLEWIGWIVVGSGNTNYAQKFQERVTITRDMSTSTAYMELSSLRSEDTAVYYCAAPACSSTSCYDGFDIWGQGTMVTVSS
VL: not shown
notes: human IgG1
B5: AB-010021 (antibody, V domains shown)
VH: B4 VH with P99V, A100Y, S103G, T104G, Y107L, G109A
VL: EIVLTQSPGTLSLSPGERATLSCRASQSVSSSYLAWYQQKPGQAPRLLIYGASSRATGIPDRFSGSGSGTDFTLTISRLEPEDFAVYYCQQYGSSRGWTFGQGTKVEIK
notes: human IgG1; also called AB-0010021

One experiment deals with SARS-CoV-2 Wuhan D614G full-length Spike protein (SARS-CoV-2, UniProt P0DTC2 14-1273). Briefly: cell-based or functional assay.
As to B1, the “Pseudovirus Neutralization” value turned out to be 0.036 µg/mL.

On to B2, for which the “Pseudovirus Neutralization” value was 0.83 µg/mL.

Consider B3, for which the “Pseudovirus Neutralization” value was 2.21 µg/mL.

With B4, the “Pseudovirus Neutralization” value amounted to 0.003 µg/mL.

Take B5: the “Pseudovirus Neutralization” value was determined as 0.7 µg/mL.

The target of a further experiment is SARS-CoV-2 Delta-plus (B.1.617.2.1) full-length Spike protein (SARS-CoV-2, UniProt P0DTC2 14-1273). Briefly: cell-based or functional assay.
In the case of B1, the “Pseudovirus Neutralization” value is > 50 µg/mL.

Turning to B2, the “Pseudovirus Neutralization” value was > 50 µg/mL.

Consider B3, for which the “Pseudovirus Neutralization” value is > 50 µg/mL.

As for B4, the “Pseudovirus Neutralization” value turned out to be 0.001 µg/mL.

Turning to B5, the “Pseudovirus Neutralization” value was 0.078 µg/mL.

The next experiment concerns the target SARS-CoV-2 Gamma (P.1.B.1.1.28) full-length Spike protein (SARS-CoV-2, UniProt P0DTC2 14-1273). Briefly: cell-based or functional assay.
B1: the “Pseudovirus Neutralization” value is > 50 µg/mL.

On to B2, for which the “Pseudovirus Neutralization” value was > 50 µg/mL.

On to B3, for which the “Pseudovirus Neutralization” value was > 50 µg/mL.

As for B4, the “Pseudovirus Neutralization” value was 0.0114 µg/mL.

In the case of B5, the “Pseudovirus Neutralization” value turned out to be 5.39 µg/mL.

A further experiment concerns the target SARS-CoV-2 Epsilon (B.1.427/9) full-length Spike protein (SARS-CoV-2, UniProt P0DTC2 14-1273). Briefly: cell-based or functional assay.
For B1, the “Pseudovirus Neutralization” value is 0.028 µg/mL.

Regarding B2, the “Pseudovirus Neutralization” value was found to be 1.16 µg/mL.

For B3, the “Pseudovirus Neutralization” value is > 50 µg/mL.

In the case of B4, the “Pseudovirus Neutralization” value was determined as 0.003 µg/mL.

For B5, the “Pseudovirus Neutralization” value is 0.629 µg/mL.

The target of the next experiment is SARS-CoV-2 Alpha (B.1.1.7) full-length Spike protein (SARS-CoV-2, UniProt P0DTC2 14-1273). The experiment is described as follows: cell-based or functional assay.
As for B1, the “Pseudovirus Neutralization” value was found to be 0.275 µg/mL.

With B2, the “Pseudovirus Neutralization” value was 7.23 µg/mL.

On to B3, for which the “Pseudovirus Neutralization” value was determined as 2.84 µg/mL.

B4: the “Pseudovirus Neutralization” value worked out at 0.013 µg/mL.

With B5, the “Pseudovirus Neutralization” value is 2.69 µg/mL.

For the next experiment, the target named is SARS-CoV-2 Delta (B.1.617.2) full-length Spike protein (SARS-CoV-2, UniProt P0DTC2 14-1273). Briefly: cell-based or functional assay.
As for B1, the “Pseudovirus Neutralization” value was found to be 0.012 µg/mL.

As to B2, the “Pseudovirus Neutralization” value came to 0.101 µg/mL.

As to B3, the “Pseudovirus Neutralization” value is > 50 µg/mL.

For B4, the “Pseudovirus Neutralization” value was determined as 0.003 µg/mL.

Regarding B5, the “Pseudovirus Neutralization” value came to 0.574 µg/mL.

The next experiment deals with SARS-CoV-2 Beta (B.1.351) full-length Spike protein (SARS-CoV-2, UniProt P0DTC2 14-1273). The experiment is described as follows: cell-based or functional assay.
With B1, the “Pseudovirus Neutralization” value was > 50 µg/mL.

In the case of B2, the “Pseudovirus Neutralization” value is > 50 µg/mL.

In the case of B3, the “Pseudovirus Neutralization” value is > 50 µg/mL.

On to B4, for which the “Pseudovirus Neutralization” value is 0.018 µg/mL.

For the molecule B5, the “Pseudovirus Neutralization” value turned out to be 8.27 µg/mL.
